Measurements published in patent US20240368279A1 (published 2024).

B1: Hu004-68 (antibody, V domains shown)
VH: EVQLVESGGGLVQPGGSLRLSCAASGFTFSGYGMSWVRQAPGKGLEWVATITSGGTYTYYPDSVKGRFTISRDNAKNSLYLQMNSLRAEDTAVYYCARSLAGNAMDYWGQGTLVTVSS
VL: EIVLTQSPVTLSVSPGERATLSCRASQGVTSNLAWYQQKPGQAPRLLIYGASTRATGVPARFSGSGSGTEFTLTISSLQSEDFAVYYCQHRGTFGQGTKVDIK
B2: Hu004-73 antibody (full-length human IgG1, kappa) (antibody, V domains shown)
VH: B1 VH
VL: DIQMTQSPSSLSASVGDRVTITCRAGQPLNNYLNWYQQKPGKPPRLLIYAASTLQSGVPSRFSGSGSGTDFTLTISGLQSEDFASYFCQHRVTFGPGTKVDVR

Legend:
[1] = target: 12283-H08H (human, UniProt Q08722 19-139); test: SPR
[2] = target: human CD47 protein (antigen of the SPR affinity determination) (human, UniProt Q08722 19-139); test: SPR

Binder | Kd [1] [nM] | Kd [2] [nM]
B1 | 222 | 
B2 |  | 184
